Ends that are not written are not given here.
T1: talin1 F2F3 domains
T1 chain: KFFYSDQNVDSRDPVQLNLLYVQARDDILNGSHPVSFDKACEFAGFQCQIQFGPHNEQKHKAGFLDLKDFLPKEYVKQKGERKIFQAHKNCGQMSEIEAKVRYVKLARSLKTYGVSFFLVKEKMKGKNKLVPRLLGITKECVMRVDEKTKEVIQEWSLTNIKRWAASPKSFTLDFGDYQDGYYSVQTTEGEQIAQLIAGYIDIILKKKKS

T2: talin2 F2F3 domains
T2 chain: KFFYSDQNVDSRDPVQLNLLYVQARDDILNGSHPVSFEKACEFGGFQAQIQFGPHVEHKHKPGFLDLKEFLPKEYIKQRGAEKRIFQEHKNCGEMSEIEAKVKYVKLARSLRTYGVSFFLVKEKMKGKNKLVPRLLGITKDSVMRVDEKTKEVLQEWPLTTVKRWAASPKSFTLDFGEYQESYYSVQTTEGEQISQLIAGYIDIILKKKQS


Key:
talin1 F2F3 domains = target: T1, talin1 F2F3 domains; experiment: FP
talin2 F2F3 domains = target: T2, talin2 F2F3 domains; experiment: FP

Kd (talin1 F2F3 domains) [µM] | Kd (talin2 F2F3 domains) [µM] | Binder
95.1 |  | KLLMIIHDRREFAKFEKEKMNAKWDTGENPIYKSAVTTVVNPKYEGK (not fully specified (N-terminus)) [β1A, listing 1 of 2 here]
 | 35.3 | KLLMIIHDRREFAKFEKEKMNAKWDTGENPIYKSAVTTVVNPKYEGK (not fully specified (N-terminus)) [β1A, listing 2 of 2 here]

From publication PMC11597407 (2024)
